From patent publication US20120214173A1, “Methods of Identifying Modulators of an Ehd Polypeptide” (priority 2007, published 2012) come the findings set out here.

Entries after “also recorded” stand apart in the source; their conditions may differ.

The target of one data set is T1, EHD2 (Mus musculus, UniProt Q8BH64).
T1 construct: Mouse EHD2 full-length protein and all mutants were expressed as N-terminal His-fusions followed by a PreScission cleavage site; His (N, cleaved yes); made in house; host or cells: Escherichia coli BL21 DE3 Rosetta
T1 sequence (Q8BH64 1-543): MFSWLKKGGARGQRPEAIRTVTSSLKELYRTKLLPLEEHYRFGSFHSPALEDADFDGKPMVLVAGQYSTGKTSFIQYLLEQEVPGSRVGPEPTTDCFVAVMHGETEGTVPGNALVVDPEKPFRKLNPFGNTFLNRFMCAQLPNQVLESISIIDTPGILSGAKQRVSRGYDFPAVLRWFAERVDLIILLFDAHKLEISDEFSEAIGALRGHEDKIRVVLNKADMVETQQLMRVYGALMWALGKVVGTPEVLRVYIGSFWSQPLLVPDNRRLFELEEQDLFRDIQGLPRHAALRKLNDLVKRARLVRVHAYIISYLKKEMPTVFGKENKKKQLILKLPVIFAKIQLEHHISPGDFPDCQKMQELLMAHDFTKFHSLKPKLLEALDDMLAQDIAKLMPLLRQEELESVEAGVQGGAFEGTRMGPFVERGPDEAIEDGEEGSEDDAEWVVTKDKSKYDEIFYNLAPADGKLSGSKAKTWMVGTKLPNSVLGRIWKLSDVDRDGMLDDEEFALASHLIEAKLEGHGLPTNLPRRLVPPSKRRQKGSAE
In words: Multiple turnover ATPase assay (nucleotide hydrolysis by HPLC) with or without Folch liposomes. Type of data set: biochemical. The settings on record: for membrane-stimulated ATPase activity (in words) / decrease in the stimulated ATPase rate versus wt: presence of Folch liposomes; for kobs stimulated ATPase reaction: 10 μM protein, 100 μM ATP, 30° C., presence of 1 mg/ml Folch (or PS) liposomes. The method, then: (§1) Amino acid numbering corresponds to mouse EHD2. b, EHD2 binds to adenine nucleotides, as determined by ITC. For clarity, ΔΔH=ΔHn−ΔH1 is plotted. […] Images were acquired close to the basal cell surface. f, Nucleotide hydrolysis was measured by HPLC in the absence (empty symbols) or presence of Folch liposomes (filled symbols). Data represent mean and standard deviation for two (intrinisic reactions) or three (stimulated reactions) independent experiments.
(§2) ITC measurements were performed at 10° C. in 20 mM HEPES (pH 7.5), 300 mM NaCl, 2 mM MgCl2. Liposome binding assays were performed as described previously (www.endocytosis.org). Multiple turnover ATPase assays were performed in 20 mM HEPES (pH 7.5), 135 mM NaCl, 15 mM KCl, 1 mM MgCl2 at 30° C. with 10 μM EHD2 (or mutants) as enzyme and 100 μM ATP as substrate, in the absence or presence of 1 mg/ml Folch liposomes (Sigma-Aldrich).
Reactions were started by the addition of the protein to the final reaction mix and nucleotide hydrolysis was followed using standard HPLC measurement^27. Initial rates were determined by applying a linear fit to data points up to 40% nucleotide hydrolysis. For electron microscopic studies, 2.5 μM EHD2 in 20 mM HEPES (pH 7.5), 150 mM NaCl, 1 mM MgCl2 was incubated for 15 min at 25° C. in the presence of 1 mM nucleotide and 0.05 mg/ml (final concentration) of the indicated liposomes. Samples were spotted on carbon-coated copper grids (Canemco and Marivac) and negatively stained with 2% uranyl acetate.
We next monitored the effect of membrane-binding on the ATPase activity of. EHD2 under multiple-turnover conditions (10-fold excess of ATP over EHD2), in the presence and absence of Folch liposoines (FIG. 1f). The intrinsic/background ATPase activity is extremely slow (kobs=0.7 h^−1) but is stimulated 8-fold in the presence of Folch or PS liposomes (kobs=5.6 h^−1).

The nature of data set [1]: Liposome co-sedimentation (membrane binding) assay. The settings on record: Folch / PS liposomes. The method, then: as §1
(§3) Nucleotide hydrolysis was measured as described in FIG. 1f. In vitro tubulation activity of PS liposomes was analysed as described in FIG. 1d. f, EGFP-tagged mutants were over-expressed in HeLa cells. […] For each construct, three independent experiments with ≈50 cells/experiments were analysed.
as §2
Mouse full-length EHD2 was expressed in bacteria and purified to homogeneity (FIG. 5). The purified protein was nucleotide-free as judged by HPLC analysis. […] It was previously reported that EHDs—despite having a predicted G-domain—bind to adenine nucleotides^15. […] We still refer to this domain as a G-domain because the sequence and fold (see below) are clearly similar to other G-domains. […] Using synthetic liposomes containing various different phosphatidyl-inositols (PI) (FIG. 1c) we observed best binding to liposomes containing PI(4,5)bisphosphate (PIP2).

A further data set relates to HeLa cells. In words: Over-expression of EGFP-tagged EHD2 and mutants in HeLa cells (confocal / live imaging). The conditions noted are these: 24 h after transfection, fixed. It counts as cell-based. The method, then: as §1, §3
Ultracentrifugation. Sedimentation velocity experiments were performed in a Beckman Optima XLA ultracentrifuge, using an An-60Ti rotor. Centrifugation was at 50,000 rev×min and 5° C. at an EHD2 concentration of 15 μM, with scans as fast as possible (˜1.5 min intervals). The data were analysed using DCDT+ v.2^44,45, with the partial specific volume for the protein (from the amino acid composition) and solvent density and viscosity calculated using Sednterp^46. Selected scans (at equal, ˜15 min intervals), and of g(s20,w) (the amount of material sedimenting between s20,w and (s20,w+δs)) and also the residuals for fitting the data with DCDT+, were plotted with the program profit v.5.6.7 (Quantum soft, Switzerland). Cell biology. N-terminal EGFP-tagged EHD2 and all mutants were over-expressed in HeLa cells from the pEGFP-C3 vector (Clontech). HeLa cells were grown as per ECACC guidelines with 10% fetal bovine serum and transfected using Genejuice (Novagen) for transient protein expression. 24 h after transfection, cells were fixed for 10 min at 37° C. in 3% paraformaldehyde and mounted. All confocal images were taken sequentially using a BioRad Radiance system and LaserSharp software (Biorad). For real-time microscopy, transfected cells on glass-bottom Petri dishes (WillCo Wells BV, Amsterdam) were washed with 25 mM HEPES (pH 7.5), 125 mM NaCl, 5 mM KCl, 10 mM D-glucose, 1 mM MgCl2, 2 mM CaCl), and epifluorescence images were taken using an Olympus IX70 microscope (Southhall, UK) and Argon laser (Melles Griot, Carlsbad, Calif.) with a Princeton instruments (Trenton, N.J.) cooled I-PentaMAX camera with MetaMorph software (Universal imaging).
EHD2 wild-type was over-expressed in HeLa cells for 24 h and imaged by EPI-fluorescence for approximately 30 min.
EHD2 T94A was over-expressed in HeLa cells for 24 h and imaged by EPI-fluorescence for approximately 30 min. […] EHD2 I157Q was over-expressed in HeLa cells for 24 h and imaged by EPI-fluorescence for approximately 30 min.

B1: T72A: EHD2 mutant in the phosphate binding (P-)loop, nucleotide-free (protein, UniProt Q8BH64 1-543, looked up, variant T72A)
EH domain-containing protein 2: MFSWLKKGGARGQRPEAIRTVTSSLKELYRTKLLPLEEHYRFGSFHSPALEDADFDGKPMVLVAGQYSTGKASFIQYLLEQEVPGSRVGPEPTTDCFVAVMHGETEGTVPGNALVVDPEKPFRKLNPFGNTFLNRFMCAQLPNQVLESISIIDTPGILSGAKQRVSRGYDFPAVLRWFAERVDLIILLFDAHKLEISDEFSEAIGALRGHEDKIRVVLNKADMVETQQLMRVYGALMWALGKVVGTPEVLRVYIGSFWSQPLLVPDNRRLFELEEQDLFRDIQGLPRHAALRKLNDLVKRARLVRVHAYIISYLKKEMPTVFGKENKKKQLILKLPVIFAKIQLEHHISPGDFPDCQKMQELLMAHDFTKFHSLKPKLLEALDDMLAQDIAKLMPLLRQEELESVEAGVQGGAFEGTRMGPFVERGPDEAIEDGEEGSEDDAEWVVTKDKSKYDEIFYNLAPADGKLSGSKAKTWMVGTKLPNSVLGRIWKLSDVDRDGMLDDEEFALASHLIEAKLEGHGLPTNLPRRLVPPSKRRQKGSAE
For the molecule B1, in the data set with EHD2, the “membrane-stimulated ATPase activity (in words)” value is recorded as “did not show stimulation of ATP hydrolysis; also recorded: did not show membrane-stimulated ATPase activity”. Further, in data set [1], the “binding to liposomes (co-sedimentation)” value is listed as “bound to Folch liposomes”. Further, in the data set with HeLa cells, the “distribution of EGFP-tagged protein over-expressed in HeLa cells” value is recorded as “cytoplasmic distribution”.

B2: F322A: EHD2 membrane-binding site mutant (protein, UniProt Q8BH64 1-543, looked up, variant F322A)
EH domain-containing protein 2: MFSWLKKGGARGQRPEAIRTVTSSLKELYRTKLLPLEEHYRFGSFHSPALEDADFDGKPMVLVAGQYSTGKTSFIQYLLEQEVPGSRVGPEPTTDCFVAVMHGETEGTVPGNALVVDPEKPFRKLNPFGNTFLNRFMCAQLPNQVLESISIIDTPGILSGAKQRVSRGYDFPAVLRWFAERVDLIILLFDAHKLEISDEFSEAIGALRGHEDKIRVVLNKADMVETQQLMRVYGALMWALGKVVGTPEVLRVYIGSFWSQPLLVPDNRRLFELEEQDLFRDIQGLPRHAALRKLNDLVKRARLVRVHAYIISYLKKEMPTVAGKENKKKQLILKLPVIFAKIQLEHHISPGDFPDCQKMQELLMAHDFTKFHSLKPKLLEALDDMLAQDIAKLMPLLRQEELESVEAGVQGGAFEGTRMGPFVERGPDEAIEDGEEGSEDDAEWVVTKDKSKYDEIFYNLAPADGKLSGSKAKTWMVGTKLPNSVLGRIWKLSDVDRDGMLDDEEFALASHLIEAKLEGHGLPTNLPRRLVPPSKRRQKGSAE
On to B2, for which, in the data set with EHD2, the “kobs stimulated ATPase reaction” value was found to be 3.0 h⁻¹, the “decrease in the stimulated ATPase rate versus wt” value is 40% and the “membrane-stimulated ATPase activity (in words)” value is listed as “reduced ATPase stimulation”. Also, in data set [1], the “binding to liposomes (co-sedimentation)” value is “bound less to liposomes”. For the same molecule, the “distribution of EGFP-tagged protein over-expressed in HeLa cells” value with HeLa cells is “completely cytoplasmic distribution”.

B3: K328D: EHD2 polybasic cluster mutant (protein, UniProt Q8BH64 1-543, looked up, variant K328D)
EH domain-containing protein 2: MFSWLKKGGARGQRPEAIRTVTSSLKELYRTKLLPLEEHYRFGSFHSPALEDADFDGKPMVLVAGQYSTGKTSFIQYLLEQEVPGSRVGPEPTTDCFVAVMHGETEGTVPGNALVVDPEKPFRKLNPFGNTFLNRFMCAQLPNQVLESISIIDTPGILSGAKQRVSRGYDFPAVLRWFAERVDLIILLFDAHKLEISDEFSEAIGALRGHEDKIRVVLNKADMVETQQLMRVYGALMWALGKVVGTPEVLRVYIGSFWSQPLLVPDNRRLFELEEQDLFRDIQGLPRHAALRKLNDLVKRARLVRVHAYIISYLKKEMPTVFGKENKDKQLILKLPVIFAKIQLEHHISPGDFPDCQKMQELLMAHDFTKFHSLKPKLLEALDDMLAQDIAKLMPLLRQEELESVEAGVQGGAFEGTRMGPFVERGPDEAIEDGEEGSEDDAEWVVTKDKSKYDEIFYNLAPADGKLSGSKAKTWMVGTKLPNSVLGRIWKLSDVDRDGMLDDEEFALASHLIEAKLEGHGLPTNLPRRLVPPSKRRQKGSAE
On to B3, for which, in the data set with EHD2, the “kobs stimulated ATPase reaction” value came out at 1.6 h⁻¹, the “decrease in the stimulated ATPase rate versus wt” value turned out to be 75% and the “membrane-stimulated ATPase activity (in words)” value is “reduced ATPase stimulation”. In addition, in data set [1], the “binding to liposomes (co-sedimentation)” value is “bound less to liposomes”. In addition, the “distribution of EGFP-tagged protein over-expressed in HeLa cells” value in the data set on HeLa cells is “completely cytoplasmic distribution”.
